Laboratory results reported in paper doi:10.1101/2025.06.05.658052 (bioRxiv, 2025).

Legend:
[1] = test system: EppR (TetR-like error-prone polymerase regulator) (Acinetobacter baumannii ATCC 17978); experiment: EMSA
SEC = target: the molecule itself; experiment: SEC

“recA regulatory region (promoter + 5'-UTR), 145 bp” was tested, and the Kd [1] was 1100 nM.

B1: His-tagged A. baumannii RecA (natural protein, Acinetobacter baumannii, UniProt A3M645 1-349, looked up)
chain: MDENKSKALQAALSQIEKQFGKNTVMRLGDNTVQAVEAVSTGSLTLDIALGIGGLPKGRIIEIYGPESSGKTTMTLQAIAQCQKSGGTCAFIDAEHALDPQYARKLGVDIDNLLVSQPDNGEQALEIADMLVRSGAIDLIVVDSVAALTPKAEIEGEMGDSHMGLQARLMSQALRKITGNAKRSNCMVIFINQIRMKIGVMFGSPETTTGGNALKFYASVRLDIRRIGQVKEGDEIVGSETKVKVVKNKMAPPFKEAIFQILYGKGTNQLGELVDLAVQQDIVQKAGAWYSYQGNKIGQGKNNVIRYFEENTQIAEEIERNIREQLLTTGTNGAVQIEDEEEPDLLLES
B1: binds (SEC).
